Results as given in US20260242735A1 (UNIVERSIT T BASEL, published 2026).

B1: Refmab #3 (antibody, V domains shown)
VH: QVQLVQSGAEVKKPGSSVKVSCKASGYTFTDYNMHWVRQAPGQGLEWIGYIYPYNGGTGYNQKFKSKATITADESTNTAYMELSSLRSEDTAVYYCARGRPAMDYWGQGTLVTVSS
VL: DIQMTQSPSSLSASVGDRVTITCRASESVDNYGISFMNWFQQKPGKAPKLLIYAASNQGSGVPSRFSGSGSGTDFTLTISSLQPDDFATYYCQQSKEVPWTFGQGTKVEIK
notes: The alanine scan used IgG or Fab
B2: Refmab #3 (antibody, V domains shown)
VH: B1 VH
VL: B1 VL
notes: Full-length format is human IgG1 Fc silent (PG-LALA); The alanine scan used IgG or Fab
B3: Refmab #2 (antibody, V domains shown)
VH: QVQLVQSGAEVKKPGSSVKVSCKASGGTFSDYAISWVRQAPGQGLEWMGRIIPILGVADYAQKFQGRVTITADKSTRTAYMELSSLRSEDTAVYYCARNWADAFDIWGQGTMVTVSS
VL: DIQLTQSPSSLSASVGDRVTITCRASQGISSVLAWYQQKPGKAPKLLIYDASSLESGVPSRFSGSGSGTDFTLTISSLQPEDFATYYCQQFDSSITFGQGTKLEIK
notes: as for B1
B4: Refmab #1 (antibody, V domains shown)
VH: EVQLVQSGAEVKKPGSSVKVSCKASGYTITDSNIHWVRQAPGQSLEWIGYIYPYNGGTDYNQKFKNRATLTVDNPTNTAYMELSSLRSEDTAFYYCVNGNPWLAYWGQGTLVTVSS
VL: DIQLTQSPSTLSASVGDRVTITCRASESLDNYGIRFLTWFQQKPGKAPKLLMYAASNQGSGVPSRFSGSGSGTEFTLTISSLQPDDFATYYCQQTKEVPWSFGQGTKVEVK
notes: The alanine scan used IgG or Fab; also called hP67.6
B5: Refmab #4 (antibody, V domains shown)
VH: QVQLVQSGAEVKKPGESVKVSCKASGYTFTNYGMNWVKQAPGQGLEWMGWINTYTGEPTYADKFQGRVTMTTDTSTSTAYMEIRNLGGDDTAVYYCARWSWSDGYYVYFDYWGQGTSVTVSS
VL: DIVMTQSPDSLTVSLGERTTINCKSSQSVLDSSTNKNSLAWYQQKPGQPPKLLLSWASTRESGIPDRFSGSGSGTDFTLTIDSPQPEDSATYYCQQSAHFPITFGQGTRLEIK
notes: as for B1
B6: Refmab #4 (antibody, V domains shown)
VH: B5 VH
VL: B5 VL
notes: as for B2

Columns and labels:
human CD33 L148A = human CD33 L148A (human, UniProt P20138 18-364); assay: flow cytometry on HEK293-T, alanine scan
human CD33 L148A, sequence (P20138 18-364 L148A limits assumed): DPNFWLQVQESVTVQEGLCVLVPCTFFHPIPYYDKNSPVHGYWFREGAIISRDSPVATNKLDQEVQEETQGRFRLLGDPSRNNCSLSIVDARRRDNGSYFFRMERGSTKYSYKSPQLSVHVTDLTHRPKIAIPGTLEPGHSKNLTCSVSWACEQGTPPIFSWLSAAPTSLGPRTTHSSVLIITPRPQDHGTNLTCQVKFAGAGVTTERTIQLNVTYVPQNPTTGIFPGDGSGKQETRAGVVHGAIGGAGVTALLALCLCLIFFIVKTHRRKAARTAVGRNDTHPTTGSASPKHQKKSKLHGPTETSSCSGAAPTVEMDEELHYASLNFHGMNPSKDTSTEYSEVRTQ
Description: (§1) An alanine scan on human CD33 was performed to the determine the residues on CD33 that are involved in binding to the antibodies investigated. […] Briefly, a mutation library of CD33 was created by high-throughput, site-directed mutagenesis. Each residue was individually mutated to alanine, with alanine codons mutated to serine. The mutant library was arrayed in 384-well microplates and transiently transfected into HEK293-T. Following transfection, cells were incubated with the indicated antibodies (IgG or Fab) at concentrations pre-determined using an independent immunofluorescence titration curve on wild type CD33. […] Binding of each antibody to each mutant clone was determined in duplicates. For each point, background fluorescence was subtracted from the raw data, which were then normalized to antibody reactivity with wild type CD33.
(§2) Critical residues for antibody binding (outlined in dark grey) were residues whose mutations led to a binding of the test Abs of less than 20%. Additional secondary residues (outlined in light grey) were identified that led to a binding of the test Abs of between 20 and 40% as compared to the wild type CD33.

human CD33 H143A = human CD33 H143A (human, UniProt P20138 18-364); assay: flow cytometry on HEK293-T, alanine scan
human CD33 H143A, sequence (P20138 18-364 H143A limits assumed): as the sequence (P20138 18-364 L148A limits assumed) above, with H126A, A131L counted along it
Description: as §1, §2

human CD33 I105A = human CD33 I105A (human, UniProt P20138 18-364); assay: flow cytometry on HEK293-T, alanine scan
human CD33 I105A, sequence (P20138 18-364 I105A limits assumed): as the sequence (P20138 18-364 L148A limits assumed) above, with I88A, A131L counted along it
Description: as §1, §2

human CD33 H157A = human CD33 H157A (human, UniProt P20138 18-364); assay: flow cytometry on HEK293-T, alanine scan
human CD33 H157A, sequence (P20138 18-364 H157A limits assumed): as the sequence (P20138 18-364 L148A limits assumed) above, with A131L, H140A counted along it
Description: as §1, §2

human CD33 N160A = human CD33 N160A (human, UniProt P20138 18-364); assay: flow cytometry on HEK293-T, alanine scan
human CD33 N160A, sequence (P20138 18-364 N160A limits assumed): as the sequence (P20138 18-364 L148A limits assumed) above, with A131L, N143A counted along it
Description: as §1, §2

human CD33 D107A = human CD33 D107A (human, UniProt P20138 18-364); assay: flow cytometry on HEK293-T, alanine scan
human CD33 D107A, sequence (P20138 18-364 D107A limits assumed): as the sequence (P20138 18-364 L148A limits assumed) above, with D90A, A131L counted along it
Description: as §1, §2

human CD33 P155A = human CD33 P155A (human, UniProt P20138 18-364); assay: flow cytometry on HEK293-T, alanine scan
human CD33 P155A, sequence (P20138 18-364 P155A limits assumed): as the sequence (P20138 18-364 L148A limits assumed) above, with A131L, P138A counted along it
Description: as §1, §2

human CD33 I147A = human CD33 I147A (human, UniProt P20138 18-364); assay: flow cytometry on HEK293-T, alanine scan
human CD33 I147A, sequence (P20138 18-364 I147A limits assumed): as the sequence (P20138 18-364 L148A limits assumed) above, with I130A, A131L counted along it
Description: as §1, §2

human CD33 K52A = human CD33 K52A (human, UniProt P20138 18-364); assay: alanine scan, flow cytometry;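 also: HEK293-T cells transiently expressing single-residue alanine mutants of CD33 (alanine swapped to serine), antibody binding read by fluorescence in duplicate, background-subtracted, expressed relative to wild-type CD33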
Description: as §1, §2

human CD33 P40A = human CD33 P40A (human, UniProt P20138 18-364); assay: alanine scan, flow cytometry;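 also: HEK293-T cells transiently expressing single-residue alanine mutants of CD33 (alanine swapped to serine), antibody binding read by fluorescence in duplicate, background-subtracted, expressed relative to wild-type CD33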
Description: as §1, §2

human CD33 F21A = human CD33 F21A (human, UniProt P20138 18-364); assay: alanine scan, flow cytometry;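 also: HEK293-T cells transiently expressing single-residue alanine mutants of CD33 (alanine swapped to serine), antibody binding read by fluorescence in duplicate, background-subtracted, expressed relative to wild-type CD33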
Description: as §1, §2

human CD33 R91A = human CD33 R91A (human, UniProt P20138 18-364); assay: alanine scan, flow cytometry;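 also: HEK293-T cells transiently expressing single-residue alanine mutants of CD33 (alanine swapped to serine), antibody binding read by fluorescence in duplicate, background-subtracted, expressed relative to wild-type CD33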
Description: as §1, §2

human CD33 P46A = human CD33 P46A (human, UniProt P20138 18-364); assay: alanine scan, flow cytometry
Description: as §1, §2

human CD33 N20A = human CD33 N20A (human, UniProt P20138 18-364); assay: alanine scan, flow cytometry
Description: as §1, §2

human CD33 I66A = human CD33 I66A (human, UniProt P20138 18-364); assay: alanine scan, flow cytometry
Description: as §1, §2

human CD33 V39A = human CD33 V39A (human, UniProt P20138 18-364); assay: alanine scan, flow cytometry
Description: as §1, §2

human CD33 A74S = human CD33 A74S (human, UniProt P20138 18-364); assay: alanine scan, flow cytometry
Description: as §1, §2

human CD33 Y49A = human CD33 Y49A (human, UniProt P20138 18-364); assay: alanine scan, flow cytometry
Description: as §1, §2

human CD33 I47A = human CD33 I47A (human, UniProt P20138 18-364); assay: alanine scan, flow cytometry
Description: as §1, §2

human CD33 F61A = human CD33 F61A (human, UniProt P20138 18-364); assay: alanine scan, flow cytometry
human CD33 F61A, sequence (P20138 18-364 F61A limits assumed): as the sequence (P20138 18-364 L148A limits assumed) above, with F44A, A131L counted along it
Description: as §1, §2

human CD33 I67A = human CD33 I67A (human, UniProt P20138 18-364); assay: alanine scan, flow cytometry
human CD33 I67A, sequence (P20138 18-364 I67A limits assumed): as the sequence (P20138 18-364 L148A limits assumed) above, with I50A, A131L counted along it
Description: as §1, §2

human CD33 C36A = human CD33 C36A (human, UniProt P20138 18-364); assay: alanine scan, flow cytometry
Description: as §1, §2

human CD33 E33A = human CD33 E33A (human, UniProt P20138 18-364); assay: alanine scan, flow cytometry
Description: as §1, §2

human CD33 Q26A = human CD33 Q26A (human, UniProt P20138 18-364); assay: alanine scan, flow cytometry
Description: as §1, §2

human CD33 R62A = human CD33 R62A (human, UniProt P20138 18-364); assay: alanine scan, flow cytometry
Description: as §1, §2

human CD33 F43A = human CD33 F43A (human, UniProt P20138 18-364); assay: alanine scan, flow cytometry
Description: as §1, §2

human CD33 L35A = human CD33 L35A (human, UniProt P20138 18-364); assay: alanine scan, flow cytometry
Description: as §1, §2

human CD33 A65S = human CD33 A65S (human, UniProt P20138 18-364); assay: alanine scan, flow cytometry
human CD33 A65S, sequence (P20138 18-364 A65S limits assumed): as the sequence (P20138 18-364 L148A limits assumed) above, with A48S, A131L counted along it
Description: as §1, §2

human CD33 V31A = human CD33 V31A (human, UniProt P20138 18-364); assay: alanine scan, flow cytometry
Description: as §1, §2

human CD33 P72A = human CD33 P72A (human, UniProt P20138 18-364); assay: alanine scan, flow cytometry
Description: as §1, §2

human CD33 S28A = human CD33 S28A (human, UniProt P20138 18-364); assay: alanine scan, flow cytometry
Description: as §1, §2

human CD33 G64A = human CD33 G64A (human, UniProt P20138 18-364); assay: alanine scan, flow cytometry
human CD33 G64A, sequence (P20138 18-364 G64A limits assumed): as the sequence (P20138 18-364 L148A limits assumed) above, with G47A, A131L counted along it
Description: as §1, §2

human CD33 V73A = human CD33 V73A (human, UniProt P20138 18-364); assay: alanine scan, flow cytometry
human CD33 V73A, sequence (P20138 18-364 V73A limits assumed): as the sequence (P20138 18-364 L148A limits assumed) above, with V56A, A131L counted along it
Description: as §1, §2

human CD33 V56A = human CD33 V56A (human, UniProt P20138 18-364); assay: alanine scan, flow cytometry
human CD33 V56A, sequence (P20138 18-364 V56A limits assumed): as the sequence (P20138 18-364 L148A limits assumed) above, with V39A, A131L counted along it
Description: as §1, §2

human CD33 L92A = human CD33 L92A (human, UniProt P20138 18-364); assay: alanine scan, flow cytometry
Description: as §1, §2

human CD33 G34A = human CD33 G34A (human, UniProt P20138 18-364); assay: alanine scan, flow cytometry
Description: as §1, §2

human CD33 D51A = human CD33 D51A (human, UniProt P20138 18-364); assay: alanine scan, flow cytometry
Description: as §1, §2

human CD33 V37A = human CD33 V37A (human, UniProt P20138 18-364); assay: alanine scan, flow cytometry
Description: as §1, §2

human CD33 R89A = human CD33 R89A (human, UniProt P20138 18-364); assay: alanine scan, flow cytometry
Description: as §1, §2

human CD33 F44A = human CD33 F44A (human, UniProt P20138 18-364); assay: alanine scan, flow cytometry
Description: as §1, §2

Binder	Mean % WT Binding (human CD33 L148A) [% WT binding]	Mean % WT Binding (human CD33 H143A) [% WT binding]	Mean % WT Binding (human CD33 I105A) [% WT binding]	Mean % WT Binding (human CD33 H157A) [% WT binding]	Mean % WT Binding (human CD33 N160A) [% WT binding]	Mean % WT Binding (human CD33 D107A) [% WT binding]	Mean % WT Binding (human CD33 P155A) [% WT binding]	Mean % WT Binding (human CD33 I147A) [% WT binding]	Mean % WT Binding (human CD33 K52A) [% WT]	Mean % WT Binding (human CD33 P40A) [% WT]	Mean % WT Binding (human CD33 F21A) [% WT]	Mean % WT Binding (human CD33 R91A) [% WT]	Mean % WT Binding (human CD33 P46A) [% WT]	Mean % WT Binding (human CD33 N20A) [% WT]	Mean % WT Binding (human CD33 I66A) [% WT]	Mean % WT Binding (human CD33 V39A) [% WT]	Mean % WT Binding (human CD33 A74S) [% WT]	Mean % WT Binding (human CD33 Y49A) [% WT]	Mean % WT Binding (human CD33 I47A) [% WT]	Mean % WT Binding (human CD33 F61A) [% WT]	other results
B1	108	97.9	64.7	138	99.3	92.5	114	67.1													
B2									80.3	122	13.6	150	8.8	34.9	126	122	115	86.6	165	304	Mean % WT Binding (human CD33 I67A): 142 % WT; Mean % WT Binding (human CD33 C36A): 102 % WT; Mean % WT Binding (human CD33 E33A): 94.9 % WT; Mean % WT Binding (human CD33 Q26A): 124 % WT; Mean % WT Binding (human CD33 R62A): 91.8 % WT; Mean % WT Binding (human CD33 F43A): 49.3 % WT; Mean % WT Binding (human CD33 L35A): 102 % WT; Mean % WT Binding (human CD33 A65S): 143 % WT; Mean % WT Binding (human CD33 V31A): 127 % WT; Mean % WT Binding (human CD33 P72A): 108 % WT; Mean % WT Binding (human CD33 S28A): 193 % WT; Mean % WT Binding (human CD33 G64A): 96.6 % WT; Mean % WT Binding (human CD33 V73A): 149 % WT; Mean % WT Binding (human CD33 V56A): 42.6 % WT; Mean % WT Binding (human CD33 L92A): 129 % WT; Mean % WT Binding (human CD33 G34A): 99.4 % WT; Mean % WT Binding (human CD33 D51A): 126 % WT; Mean % WT Binding (human CD33 V37A): 150 % WT; Mean % WT Binding (human CD33 R89A): 126 % WT
B3	119	104	43.7	115	107	109	126	92.2													
B4	83.1	88.8	31.5	86.6	82.3	87.7	84.4	71.6													
B5	113	106	21.6	97.4	102	93	111	58.7													
B6									9.8	43	43.6	100	135	158	108	58.4	72.5	3.1	144	131	Mean % WT Binding (human CD33 F44A): 152 % WT; Mean % WT Binding (human CD33 I67A): 67.2 % WT; Mean % WT Binding (human CD33 C36A): 108 % WT; Mean % WT Binding (human CD33 E33A): 87.1 % WT; Mean % WT Binding (human CD33 Q26A): 63.1 % WT; Mean % WT Binding (human CD33 R62A): 104 % WT; Mean % WT Binding (human CD33 F43A): 7.8 % WT; Mean % WT Binding (human CD33 L35A): 94.5 % WT; Mean % WT Binding (human CD33 A65S): 84 % WT; Mean % WT Binding (human CD33 V31A): 97.9 % WT; Mean % WT Binding (human CD33 P72A): 94.6 % WT; Mean % WT Binding (human CD33 S28A): 79.9 % WT; Mean % WT Binding (human CD33 G64A): 93.9 % WT; Mean % WT Binding (human CD33 V73A): 67.2 % WT; Mean % WT Binding (human CD33 V56A): 56.8 % WT; Mean % WT Binding (human CD33 L92A): 85.2 % WT; Mean % WT Binding (human CD33 G34A): 93.4 % WT; Mean % WT Binding (human CD33 D51A): 36 % WT; Mean % WT Binding (human CD33 V37A): 78.7 % WT; Mean % WT Binding (human CD33 R89A): 71.6 % WT
